Experimental data published in publication PMC9470164, “Membrane-mediated dimerization potentiates PIP5K lipid kinase activity” (eLife, 2022).

Experiments:
[1] = molecular target: human PIP5KB (D51R), purified, unlabelled (human)
[2] = molecular target: mouse PIP5KA (D92R), purified (mouse)
[3] = molecular target: mNG-PIP5KB, recombinantly expressed and purified (human) (UniProt O14986)
[4] = molecular target: mNG-PIP5KB, recombinantly expressed and purified (human) (UniProt O14986); experiment: single-molecule TIRF molecular brightness, photobleaching and tracking on supported lipid bilayers; purified mNG kinases at 100 pM; equilibrium membrane binding at ~600 kinases per field of view (0.2 kinases/µm^2); particles with intensity ≥8200 A.U. counted as dimers; membrane 96% DOPC, 4% PI(4,5)P2
[5] = molecular target: mouse PIP5KA, purified (mouse)
[6] = molecular target: the molecule itself; experiment: single-molecule TIRF molecular brightness on supported lipid bilayers; purified kinases labelled with Alexa488 by Sortase-mediated peptide ligation; membrane 96% DOPC, 4% PI(4,5)P2
[7] = molecular target: the molecule itself; experiment: single-molecule TIRF molecular brightness and photobleaching on supported lipid bilayers; mNG-tagged kinase in HEK293 cell lysate diluted ~10,000-fold to ~10 pM (legend: 1 pM mNG-PIP4KB, 5 pM mNG-PIP5K); low surface density ~0.03 molecules/µm^2; membrane 96% DOPC, 4% PI(4,5)P2; 23°C

human PIP5KB (D51R), purified, unlabelled (enzyme)
lipid kinase activity on supported lipid bilayers, reduction against wild-type PIP5KB [1]: 7 fold

mouse PIP5KA (D92R), purified (enzyme)
reaction half-time of PI(4,5)P2 production at 5, 2.5 and 1 nM kinase (71 s, 139 s, 270 s) [2]: 270 s

mNG-PIP5KB, recombinantly expressed and purified (from UniProt O14986 1-540) (enzyme)
effective phosphorylation rate constant per membrane-bound kinase (after the transition from slow to fast kinetics) (lipids/µm^2•s per kinase) [3]: 0.0027
fold frequency of dimers against mNG-PIP5KB (D51R) [4]: 5 fold
stoichiometry N [4]: 2
time that dimers persist before photobleaching or dissociating [4]: 1 to 2 s

mouse PIP5KA, purified (enzyme)
reaction half-time of PI(4,5)P2 production at 5, 2.5 and 1 nM kinase (28 s, 49 s, 90 s) [5]: 90 s

B1: Alexa488-labelled human PIP4KB (Ax488-PIP4KB), purified (enzyme)
chain: GGGGGMSSNCTSTTAVAVAPLSASKTKTKKKHFVCQKVKLFRASEPILSVLMWGVNHTINELSNVPVPVMLMPDDFKAYSKIKVDNHLFNKENLPSRFKFKEYCPMVFRNLRERFGIDDQDYQNSVTRSAPINSDSQGRCGTRFLTTYDRRFVIKTVSSEDVAEMHNILKKYHQFIVECHGNTLLPQFLGMYRLTVDGVETYMVVTRNVFSHRLTVHRKYDLKGSTVAREASDKEKAKDLPTFKDNDFLNEGQKLHVGEESKKNFLEKLKRDVEFLAQLKIMDYSLLVGIHDVDRAEQEEMEVEERAEDEECENDGVGGNLLCSYGTPPDSPGNLLSFPRFFGPGEFDPSVDVYAMKSHESSPKKEVYFMAIIDILTPYDTKKKAAHAAKTVKHGAGAEISTVNPEQYSKRFNEFMSNILT
modifications: Alexa488 on the N-terminal amine of the ligated LPETGG peptide
notes: glycine stretch of his6-SUMO3-GGGGG-PIP4K2B left after SenP2 cleavage; human PIP4K2B isoform 2, 1-416aa; Surmise: Sortase ligation leaves Alexa488-LPET joined to GGGGG-PIP4K2B; also called Alexa488-PIP4K; PIP4K2B; source: E. coli BL21(DE3) Star, purified (Co2+ HiTrap Chelating, Superdex 200), labelled by Sortase-mediated peptide ligation; not shown: His6, N-terminal, cleaved; SUMO3, N-terminal, …
binding result [6]: binds

B2: mNeonGreen-tagged human phosphatidylinositol 5-phosphate 4-kinase type-2 beta (mNG-PIP4KB) (enzyme, UniProt P78356 1-416, looked up)
chain: MSSNCTSTTAVAVAPLSASKTKTKKKHFVCQKVKLFRASEPILSVLMWGVNHTINELSNVPVPVMLMPDDFKAYSKIKVDNHLFNKENLPSRFKFKEYCPMVFRNLRERFGIDDQDYQNSVTRSAPINSDSQGRCGTRFLTTYDRRFVIKTVSSEDVAEMHNILKKYHQFIVECHGNTLLPQFLGMYRLTVDGVETYMVVTRNVFSHRLTVHRKYDLKGSTVAREASDKEKAKDLPTFKDNDFLNEGQKLHVGEESKKNFLEKLKRDVEFLAQLKIMDYSLLVGIHDVDRAEQEEMEVEERAEDEECENDGVGGNLLCSYGTPPDSPGNLLSFPRFFGPGEFDPSVDVYAMKSHESSPKKEVYFMAIIDILTPYDTKKKAAHAAKTVKHGAGAEISTVNPEQYSKRFNEFMSNILT
notes: human phosphatidylinositol 5-phosphate 4-kinase type-2 beta (PIP4KB, PIP4K2B); Lentiviral vector with SFFV promoter; also called hPIP4K2B; source: HEK293T, transiently transfected, in clarified cell lysate (diluted); not shown: mNeonGreen, N-terminal, kept
stoichiometry N [7]: 2
